Assay results as given in PMC4738012 (Journal of molecular biology, 2015).

How the values were obtained:
Assay in all cases: flow cytometry on cells
[1] = target: RMF peptide on HLA-A*02 of peptide-pulsed T2 cells (Homo sapiens, HLA-A*02:01, strain)
[2] = target: MED13L peptide … on HLA-A*02:01 of peptide-pulsed T2 cells (Homo sapiens, HLA-A*02:01 (T2 cells))
[3] = target: PIGQ peptide … on HLA-A*02:01 of peptide-pulsed T2 cells (Homo sapiens, HLA-A*02:01 (T2 cells))

Measured: binding result

B1: ESK1 full-length human IgG1 antibody (antibody, V domains shown)
VH: QMQLVQSGAEVKEPGESLRISCKGSGYSFTNFWISWVRQMPGKGLEWMGRVDPGYSYSTYSPSFQGHVTISADKSTSTAYLQWNSLKASDTAMYYCARVQYSGYYDWFDPWGQGTLVTVSS
VL: not shown
binds: all assays above
